Measured values as given in patent US20240091374A1 (AbbVie / Abbott, published 2024).

Target: T1, Seizure-related homolog 6 (SEZ6) (UniProt Q53EL9 20-994, limits assumed)
T1 sequence (looked up): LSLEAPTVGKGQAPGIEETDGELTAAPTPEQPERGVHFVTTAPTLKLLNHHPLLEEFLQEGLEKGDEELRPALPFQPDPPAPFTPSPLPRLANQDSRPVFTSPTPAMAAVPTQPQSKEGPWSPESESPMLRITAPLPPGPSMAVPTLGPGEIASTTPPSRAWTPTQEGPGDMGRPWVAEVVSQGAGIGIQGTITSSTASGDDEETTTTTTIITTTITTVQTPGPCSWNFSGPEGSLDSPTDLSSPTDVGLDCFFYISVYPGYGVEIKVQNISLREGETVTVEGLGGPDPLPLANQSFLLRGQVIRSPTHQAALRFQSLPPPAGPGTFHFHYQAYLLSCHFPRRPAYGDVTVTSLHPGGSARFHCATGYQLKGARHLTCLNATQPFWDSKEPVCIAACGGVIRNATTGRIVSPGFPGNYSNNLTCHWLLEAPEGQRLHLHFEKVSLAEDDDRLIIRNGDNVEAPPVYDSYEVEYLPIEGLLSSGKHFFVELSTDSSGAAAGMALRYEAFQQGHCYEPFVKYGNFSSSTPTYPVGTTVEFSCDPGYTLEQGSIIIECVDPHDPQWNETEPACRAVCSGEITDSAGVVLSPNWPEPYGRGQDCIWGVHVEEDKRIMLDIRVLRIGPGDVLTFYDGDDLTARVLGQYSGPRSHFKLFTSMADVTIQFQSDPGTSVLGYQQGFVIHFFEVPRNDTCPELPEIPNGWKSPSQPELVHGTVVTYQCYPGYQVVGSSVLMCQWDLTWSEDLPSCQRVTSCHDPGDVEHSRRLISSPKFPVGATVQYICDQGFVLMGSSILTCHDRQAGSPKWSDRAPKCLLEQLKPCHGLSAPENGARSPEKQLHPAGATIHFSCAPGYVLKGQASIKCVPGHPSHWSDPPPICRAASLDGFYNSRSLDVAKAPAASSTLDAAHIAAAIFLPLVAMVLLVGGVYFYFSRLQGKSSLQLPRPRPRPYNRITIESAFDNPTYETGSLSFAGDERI
Experiment: cell-based or functional assay

B1: ADC-1 (anti-SEZ6 antibody Ab conjugated to TOP1i linker drug LD1, formula (IV), DAR about 6) (antibody, V domains shown)
VH: EVQLVQSGAEVKKPGESLKISCKGSGYSFTSSWINWVRQMPGKGLEWMGRIYPGEGDTNYNGNFEGQVTISADKSISTAYLQWSSLKASDTAMYYCTRGLVMDYWGQGTLVTVSS
VL: EIVLTQSPATLSLSPGERATLSCRASQSVDYNGISYMHWYQQKPGQAPRLLIYAASNVQSGIPARFSGSGSGTDFTLTISSLEPEDFAVYYCQQSIEDPPTFGGGTKVEIKR
modifications: linker drug LD1 (Example 1J, formula (III)) on sulfhydryl groups of cysteine residues after global reduction; positions not given; linker drug LD1 (Example 1J, formula (III)) on sulfhydryl groups of cysteine residues after global reduction; DAR of about 6 over the whole antibody, predominant species n = 6; positions not given
growth inhibitory IC50, CellTiter-Glo cell viability, 10 days, COR-L95 cells (SEZ6 mRNA positive): 0.33 nM
growth inhibitory IC50, CellTiter-Glo cell viability, 10 days, NCI-H146 cells (SEZ6 mRNA positive): 0.05 nM
growth inhibitory IC50, CellTiter-Glo cell viability, 10 days, NCI-H524 cells (SEZ6 mRNA positive): 0.33 nM
growth inhibitory IC50, CellTiter-Glo cell viability, 10 days, NCI-H526 cells (SEZ6 mRNA positive): 0.1 nM
growth inhibitory IC50, CellTiter-Glo cell viability, 10 days, NCI-H1963 cells (SEZ6 mRNA positive): 4.63 nM
growth inhibitory IC50, CellTiter-Glo cell viability, 10 days, row without a cell line label below COR-L95 (taken as a second COR-L95 value): 0.29 nM
